The results in this text go back to the supplement of paper PMC9170038.

For the series, the system named is MS2 coat protein. Description: apparent KD of MS2 coat protein; designed switch direction (-1 OFF switch, 1 ON switch): -1; higher = weaker reporter binding. In outline:
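Designed RNA switches were transcribed on Illumina chips by stalled E. coli RNA polymerase and titrated with SNAP-549-labelled MS2 coat protein from 0.7 or 1.5 nM, doubling to 3 µM. Step length ran from 0.8–1.5 h at the lowest concentration to 10–20 min at the highest. The apparent KD is the median over clusters for each design, from curve-fitted normalised cluster fluorescence.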

The mark [1] stands for this setting: Eterna round: R95, input ligand: microRNA oligo, concentration not stated.
Setting [2] is: input ligand: microRNA oligo, concentration not stated.
Where [3] appears, read: Eterna round: R95, input ligand: FMN 200 uM.
[4] abbreviates: Eterna round: R95, input ligand: none.

“AAGAACUUAGGAUAUACAUGAGGAUCACCCAUGUAGCUUCACUUGGGCCUGAGCCCGUGUAGAAGGAAGAAAAU [Arge] (puzzle: Exclusion 3)”: the “apparent KD of MS2 coat protein” value under setting [1] is 66 nM.

For the sequence “AAGAAGAAGUAAGGAUAUGAAGAUCUGGUGGUGACAUGAGGAUCACCCAUGUGAAAACGAUGAGAUCAGAAGGUACAAGAAGAA [AK ExNG2-3.4] (Eterna round: R96, puzzle: Exclusion NG 2)”, the “apparent KD of MS2 coat protein” value (input ligand: FMN 200 uM) was 86.4 nM, the “apparent KD of MS2 coat protein” value under setting [2] was found to be 65.3 nM and the “apparent KD of MS2 coat protein” value (input ligand: none) was determined as 77.8 nM.

As for “AAGAAGAUAGGAUAUACGAGGAGAGAAGAGAAGAAAGGAGGACAUGAGGAUCACCCAUGUAGAAGGAUCAGGAA [JR_Exclu2_Sub061] (puzzle: Exclusion 2)”, the “apparent KD of MS2 coat protein” value runs as follows: under setting [3], 50.2 nM; under setting [1], 41 nM; under setting [4], 40.5 nM.

Take “AAGAAGCGAGGAUAUGCAAAAGAAAAGAAGAAGAAGAAAGAACAUGAGGAUCACCCAUGUAGAAGGCGCAAGAA [Mine, too!] (puzzle: Exclusion 2)”: the “apparent KD of MS2 coat protein” value was 19.8 nM under setting [3], 20.8 nM under setting [1] and 22.2 nM under setting [4].

On to “AAGAAGUAAGGAUAUGGCCGGGUCCCUGGGUUUGGACCCGGCUAGAAGGUACAUGAGGAUCACCCAUGUAAGAA [Excls4-IX] (puzzle: Exclusion 4)”, for which, under setting [1], the “apparent KD of MS2 coat protein” value amounted to 13.1 nM.

For the sequence “AAGAAUCUAGGAUAUUAGCGGGCCUACAUGAGGAUCACCCAUGUCGUGUCGCGGGUAUGCUGAGAAGGAGAGCACA [EX5 B.5] (Eterna round: R97, puzzle: Exclusion 5)”, the “apparent KD of MS2 coat protein” value (input ligand: FMN 200 uM) turned out to be 16.3 nM and the “apparent KD of MS2 coat protein” value (input ligand: none) turned out to be 16.3 nM.

As for “AAGACAAAUGUAGGAUAUGCGUGGCGAAGCUAUGCAGAAGGACAUGAGGAUCACCCAUGUCUUAGCGUCUGCGUACAGAUGCUA [JL eng1 1.35 mod 9] (Eterna round: R96, puzzle: Exclusion NG 1)”, the “apparent KD of MS2 coat protein” value under setting [2] turned out to be 12.1 nM.

Turning to “AAGAGGAUCGGAGGAUAUGGAGCUGAAACGGCGCUAGAAGGCCGUCCAGUGUAACAUGAGGAUCACCCAUGUAGGGACCUCUAA [EX ng 1 4.1] (Eterna round: R96, puzzle: Exclusion NG 1)”, the “apparent KD of MS2 coat protein” value reads like this: (input ligand: FMN 200 uM) 314 nM; under setting [2], 65.5 nM; (input ligand: none) 102 nM.

“AAGAGGCUAGGAUAUACAUGAGGAUCACCCAUGUGAGGGCACGGCCGGCGCGUGGCCGGUAGAAGGAGUCAAAA [Exc;s3-VIII] (puzzle: Exclusion 3)”: the “apparent KD of MS2 coat protein” value under setting [1] was determined as 17.5 nM.

Regarding “AAGAUGCGGAUAGGAUAUGGAGAGAAAGAAAGACCAGAAGGAUUGGUCAUAUAACAUGAGGAUCACCCAUGUAUAUGUUGUGAA [AK ExNG1-3.2] (Eterna round: R96, puzzle: Exclusion NG 1)”, the “apparent KD of MS2 coat protein” value under setting [2] was 13 nM.

As for “AAGAUUAUUUCAGGAUAUAGAUUGAUGAUCGUACUAGAAGGGAAAACACAGUACAUGAGGAUCACCCAUGUUCAUGUAGUGCCA [Eternabot solution 29] (Eterna round: R96, puzzle: Exclusion NG 1)”, the “apparent KD of MS2 coat protein” value reads like this: (input ligand: FMN 200 uM) 17.2 nM; under setting [2], 13.4 nM; (input ligand: none) 17.4 nM.

Turning to “AAGCCUCAAGUUAGGAUAUUAAUAAGGCAAAUUAUUAAGAAGGGACAUGAGGAUCACCCAUGUAAAAUUCUCAC [Biedredi] (Eterna round: R97, puzzle: Brourd's mod of Exclusion 4)”, the “apparent KD of MS2 coat protein” value (input ligand: FMN 200 uM) came out at 140 nM and the “apparent KD of MS2 coat protein” value (input ligand: none) turned out to be 57.5 nM.

“AAGCGCGAGGCAGGAUAUGCAGAGCGGGUGGCCCGUGCAGAAAAUAACAUGAGGAUCACCCAUGUGCAGAAGGGCCGGGUGACC [Anataredra] (Eterna round: R96, puzzle: Exclusion NG 2)”: the “apparent KD of MS2 coat protein” value by setting is: (input ligand: FMN 200 uM) 60.5 nM; under setting [2], 36.1 nM; (input ligand: none) 72.9 nM.

Turning to “AAGGUGUUAGGAUAUCGUAGUUUGUGGCAGACGGGAUUUUGCGAGAAGGAACAUGAGGAUCACCCAUGUCGGAU [JR_Exclu4_Sub041] (puzzle: Exclusion 4)”, the “apparent KD of MS2 coat protein” value under setting [1] is 27.1 nM.

Take “AAGUACCGUCACGAAAGUGAUGGUACAACAAGUAAAUGUACAUGAGGAUCACCCAUGUCCUCAAUUGCUCGUCUUAU [Sensor 3 - 60] (puzzle: Sensor v3, turn-off variant 2)”: the “apparent KD of MS2 coat protein” value under setting [3] is 722 nM, the “apparent KD of MS2 coat protein” value under setting [1] was found to be 202 nM and the “apparent KD of MS2 coat protein” value under setting [4] worked out at 745 nM.

Regarding “AAGUAGACAGUGAGGAUAUUGGUGGAAUGACACAUUAAGAAGGUACAUGAGGAUCACCCAUGUGGGUAAUGUCG [Brourd's EX4 #26] (Eterna round: R97, puzzle: Brourd's mod of Exclusion 4)”, the “apparent KD of MS2 coat protein” value (input ligand: FMN 200 uM) was found to be 64.8 nM and the “apparent KD of MS2 coat protein” value (input ligand: none) was 45.8 nM.

As to “AAGUAUCAUGUAGGAUAUGCUAUCCGAACGGUAGCAGAAGGACAUGAGGAUCACCCAUGUUCUCAUCUGUGAGAACAGAUGUCU [Ex NG1 #5] (Eterna round: R96, puzzle: Exclusion NG 1)”, the “apparent KD of MS2 coat protein” value reads like this: (input ligand: FMN 200 uM) 95.2 nM; under setting [2], 19.4 nM; (input ligand: none) 22.3 nM.

For the sequence “AAGUGGUGAGGAUAUAUAUACCAAUCUUCGAGGCACGACCAACAUGAGGAUCACCCAUGUAGAAGGCACCACAA [Eternabot (Original) Solution 39] (Eterna round: R97, puzzle: Exclusion 2)”, the “apparent KD of MS2 coat protein” value runs as follows: (input ligand: FMN 200 uM) 32.7 nM; (input ligand: none) 14.9 nM.

On to “AAUAAACUAGGAUAUACAUGAGGAUCACCCAUGUGUCGCCACGUGCUUGCUCACUCGUGUAGAAGGAGUACGGA [Atisan] (puzzle: Exclusion 3)”, for which, under setting [1], the “apparent KD of MS2 coat protein” value is 33.4 nM.

On to “AAUAAAGGCCGAGGAUAUCGGAAAGGAAGUGUACGAGAAGGCGGCAAAAGAACAUGAGGAUCACCCAUGUGGGCCGAUCUUCCG [PowerStrip EXNG 1.2] (Eterna round: R96, puzzle: Exclusion NG 1)”, for which the “apparent KD of MS2 coat protein” value (input ligand: FMN 200 uM) is 26.4 nM, the “apparent KD of MS2 coat protein” value under setting [2] was found to be 10 nM and the “apparent KD of MS2 coat protein” value (input ligand: none) was found to be 18 nM.

Regarding “AAUAAAGGCCGAGGAUAUCGGAAAGGAAGUGUACGAGAAGGUGGCAAAAGAACAUGAGGAUCACCCAUGUGGGCCGAUCUUCCG [PowerStrip EXNG 1.4] (Eterna round: R96, puzzle: Exclusion NG 1)”, the “apparent KD of MS2 coat protein” value is 33.3 nM (input ligand: FMN 200 uM), 28.8 nM under setting [2] and 29.9 nM (input ligand: none).

For “AAUAACAAGCAGAUCCUAAACAUGAGGAUCACCCAUGUGCUCGUCUUGUAAAGUACUAUCACGAAAGUGAUAGUACA [Sensor 3, v1 - 59] (puzzle: Sensor v3, turn-off variant 1)”, the “apparent KD of MS2 coat protein” value under setting [3] was 67.5 nM, the “apparent KD of MS2 coat protein” value under setting [1] was determined as 186 nM and the “apparent KD of MS2 coat protein” value under setting [4] stood at 76.5 nM.

Take “AAUAACAAGUUGAUCCUACACAUGAGGAUCACCCAUGUGCUCGUCUUGUAAAGUACUAUCACGAAAGUGAUAGUACA (Eterna round: R97, puzzle: Sensor, turn-off variant 1)”: the “apparent KD of MS2 coat protein” value by setting is: (input ligand: FMN 200 uM) 50.2 nM; (input ligand: none) 66 nM.

As to “AAUAACAGAGGAUAUACUGUUUUAUGUAUUUAUUAUUUUAAACAUGAGGAUCACCCAUGUAGAAGGCUGAAUGA [JMF 55] (puzzle: Exclusion 2)”, under setting [1], the “apparent KD of MS2 coat protein” value worked out at 20.7 nM.
